# Measurements published in patent US20120321557A1 (FORERUNNER PHARMA RESEARCH, published 2012).
# T1: human ICAM5 (human, UniProt Q9UMF0 32-924)
# T1 construct: also called ICAM5/BaF3 (cells that carry it)
# T1 sequence: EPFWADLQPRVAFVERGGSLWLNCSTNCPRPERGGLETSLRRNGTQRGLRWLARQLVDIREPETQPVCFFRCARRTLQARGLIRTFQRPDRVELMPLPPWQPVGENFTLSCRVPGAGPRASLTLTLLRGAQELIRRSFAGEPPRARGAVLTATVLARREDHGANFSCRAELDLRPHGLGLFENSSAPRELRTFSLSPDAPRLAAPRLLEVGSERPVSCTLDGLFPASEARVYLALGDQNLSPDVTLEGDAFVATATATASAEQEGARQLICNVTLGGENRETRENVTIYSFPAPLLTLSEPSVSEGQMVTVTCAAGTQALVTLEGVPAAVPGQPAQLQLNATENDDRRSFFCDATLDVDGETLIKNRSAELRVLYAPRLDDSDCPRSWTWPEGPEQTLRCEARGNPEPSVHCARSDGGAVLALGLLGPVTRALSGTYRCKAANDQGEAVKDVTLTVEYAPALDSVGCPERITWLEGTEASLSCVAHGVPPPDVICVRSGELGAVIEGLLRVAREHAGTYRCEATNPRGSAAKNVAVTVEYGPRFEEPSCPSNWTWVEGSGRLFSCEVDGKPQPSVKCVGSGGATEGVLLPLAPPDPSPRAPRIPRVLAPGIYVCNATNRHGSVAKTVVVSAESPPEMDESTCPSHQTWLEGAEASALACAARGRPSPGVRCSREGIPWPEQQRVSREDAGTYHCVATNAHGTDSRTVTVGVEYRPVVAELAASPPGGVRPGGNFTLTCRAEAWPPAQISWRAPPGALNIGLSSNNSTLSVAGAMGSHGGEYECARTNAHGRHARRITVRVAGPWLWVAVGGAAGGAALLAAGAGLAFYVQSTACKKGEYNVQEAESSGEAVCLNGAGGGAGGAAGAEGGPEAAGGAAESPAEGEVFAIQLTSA
# B1: mouse monoclonal antibody IB23 (antibody, V domains shown)
# VH: QVQLQQSGAELAKPGASVKMSCKASGYTFTTYWMHWVKQRPGQGLEWIGYINPNTDYTEYNQKFKDKATLTADKSSSTAFMQLSSLTSEDSAVYYCASSRDAYHGTYWGQGTLVTVSA
# VL: DIVMTQSPATLSVTPGDRVSLSCRASQSISDYLHWYQQKSHESPRLLIRYASQSISGIPSRFSGSGSGSDFTLSINNVEPEDVGVYYCQNGHNFPLTFGAGTKLELK
# notes: Mouse hybridoma antibody purified on Protein G and detected with anti-mouse IgG-FITC; also called IB23 antibody; mouse IB23 antibody
# Key:
# human ICAM5 = target: T1, human ICAM5; experiment: FACS on ICAM5-expressing BaF3 transfectant, anti-mouse IgG-FITC detection
# Protocol: (§1) Next, using these cell lines thus established, the cross-reactivity of IB23 with the ICAM family was analyzed. Each 10 μg/ml of the IB23 antibody, an anti-human ICAM1 antibody (R&D Systems, Inc., #BBA3), and an anti-human ICAM5 antibody (R&D Systems, Inc., #MAB1950) were reacted with ICAM1/BaF3 and ICAM5/BaF3. Then, after staining with an anti-mouse IgG-FITC antibody (Beckman Coulter #IM0819), the binding of each antibody was analyzed by FACS (Becton, Dickinson and Company).
# human ICAM1 = target: T2, human ICAM1 (human, UniProt P05362 28-532); experiment: FACS on ICAM1-expressing BaF3 transfectant, anti-mouse IgG-FITC detection
# T2 construct: also called ICAM1/BaF3 (cells that carry it)
# T2 sequence (P05362 28-532 K469E limits assumed): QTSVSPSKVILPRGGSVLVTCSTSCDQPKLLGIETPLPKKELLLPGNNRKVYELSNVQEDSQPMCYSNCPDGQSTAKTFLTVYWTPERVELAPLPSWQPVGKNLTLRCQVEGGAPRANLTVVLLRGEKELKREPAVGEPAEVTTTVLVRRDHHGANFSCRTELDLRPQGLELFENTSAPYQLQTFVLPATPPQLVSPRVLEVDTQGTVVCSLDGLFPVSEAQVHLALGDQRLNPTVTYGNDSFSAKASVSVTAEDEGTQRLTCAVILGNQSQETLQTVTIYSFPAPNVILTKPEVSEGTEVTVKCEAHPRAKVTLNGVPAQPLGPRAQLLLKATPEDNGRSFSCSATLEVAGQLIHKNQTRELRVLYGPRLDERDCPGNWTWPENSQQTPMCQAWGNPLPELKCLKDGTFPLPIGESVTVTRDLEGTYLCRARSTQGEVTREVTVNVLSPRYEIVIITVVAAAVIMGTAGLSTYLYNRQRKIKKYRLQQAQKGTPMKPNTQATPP
# Protocol: as §1
binder,measurement,setting,value
B1,binding result,human ICAM5,no binding (tested: 10 µg/ml)
same,binding result,human ICAM1,no binding (tested: 10 µg/ml)
